T1: human FAP (Homo sapiens, UniProt Q12884)
T1 sequence (Q12884 1-760): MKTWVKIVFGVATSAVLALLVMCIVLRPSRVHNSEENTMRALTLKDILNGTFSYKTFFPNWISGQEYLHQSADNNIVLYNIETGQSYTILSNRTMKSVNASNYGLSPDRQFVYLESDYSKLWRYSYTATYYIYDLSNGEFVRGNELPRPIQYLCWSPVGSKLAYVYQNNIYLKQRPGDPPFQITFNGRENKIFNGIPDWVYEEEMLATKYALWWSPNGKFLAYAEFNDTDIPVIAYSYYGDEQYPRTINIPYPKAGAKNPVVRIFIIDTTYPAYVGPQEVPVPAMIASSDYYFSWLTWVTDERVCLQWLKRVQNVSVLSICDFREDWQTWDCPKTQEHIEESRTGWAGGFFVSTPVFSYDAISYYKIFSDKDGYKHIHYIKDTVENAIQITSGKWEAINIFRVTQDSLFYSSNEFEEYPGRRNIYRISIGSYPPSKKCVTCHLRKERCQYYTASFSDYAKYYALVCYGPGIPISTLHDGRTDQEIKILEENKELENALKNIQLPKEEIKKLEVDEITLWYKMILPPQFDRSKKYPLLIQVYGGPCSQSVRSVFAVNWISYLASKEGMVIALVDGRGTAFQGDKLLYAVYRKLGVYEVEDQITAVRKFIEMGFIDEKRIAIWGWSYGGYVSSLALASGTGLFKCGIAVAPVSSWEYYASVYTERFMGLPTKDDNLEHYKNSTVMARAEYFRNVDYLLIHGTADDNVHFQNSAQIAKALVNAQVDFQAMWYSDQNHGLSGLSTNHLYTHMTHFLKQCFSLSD

T2: human fibroblast activation protein (FAP) (human, UniProt Q12884 26-760)
T2 construct: also called human FAP; hFAP
T2 sequence: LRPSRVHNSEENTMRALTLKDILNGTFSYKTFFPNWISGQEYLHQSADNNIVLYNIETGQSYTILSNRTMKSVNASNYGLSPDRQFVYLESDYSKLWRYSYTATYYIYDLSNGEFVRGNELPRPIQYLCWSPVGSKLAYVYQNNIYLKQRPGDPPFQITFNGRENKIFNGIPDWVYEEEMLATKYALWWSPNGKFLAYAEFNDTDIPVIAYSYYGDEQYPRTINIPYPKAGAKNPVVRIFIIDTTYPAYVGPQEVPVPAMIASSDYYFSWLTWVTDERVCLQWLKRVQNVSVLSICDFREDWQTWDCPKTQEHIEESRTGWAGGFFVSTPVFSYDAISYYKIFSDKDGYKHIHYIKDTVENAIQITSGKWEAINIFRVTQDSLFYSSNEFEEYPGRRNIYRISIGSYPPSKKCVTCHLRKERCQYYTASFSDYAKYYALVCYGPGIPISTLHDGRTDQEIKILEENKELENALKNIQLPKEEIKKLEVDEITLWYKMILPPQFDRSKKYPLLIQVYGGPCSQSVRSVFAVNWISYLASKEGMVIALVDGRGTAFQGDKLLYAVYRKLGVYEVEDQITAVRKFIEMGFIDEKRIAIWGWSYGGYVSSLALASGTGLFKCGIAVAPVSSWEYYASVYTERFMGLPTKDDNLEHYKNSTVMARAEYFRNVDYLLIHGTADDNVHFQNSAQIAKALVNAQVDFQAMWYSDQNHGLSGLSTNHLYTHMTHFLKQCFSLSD

B1: VHH9: VHH, target FAP, SEQ ID NO 92 (protein)
VHH: QVQLQESGGGLVQSGGSLRLSCVASGSISSINAMGWYRQAPGNKREWVAGITSGGSTNYADAVLGRFSIFRDNPKNTVYLQMNSLKPEDTAVYYCNTWPPSTFGSWGQGTQVTVSSAAAYPYDVPDYGSHHHHHH
B2: VHH1: VHH, target FAP, SEQ ID NO 4 (protein)
VHH: DVQLVESGGGLVQPGGSLRLSCVASGRLSSSNSMAWYRQVPGKRRELVAGITGGGETNYADFVGGRFTISRDNAKNGLYLQLNGLKPEDTAAYYCNFWPPLINYWGQGTQVTVSS
modifications: VHH1
B3: VHH8: VHH, target FAP, SEQ ID NO 91 (protein)
VHH: QVQLQESGGGTVQPGGSLRLSCAASGISVSIASMAWYRQAPGKQRELVAGIISGGSTNYADSVKGRFTISRDNAKKVVLLQMNSLKPEDTAVYYCNTYPPFVGPGATATWGQGTQVTVSSAAAYPYDVPDYGSHHHHHH
B4: VHH6: VHH, target FAP, SEQ ID NO 89 (protein)
VHH: DVQLVESGGGLVQAGGSLRLSCAVSGSISSANSMGWYRQAPGKQRDVVAGLTTGGRSHYADSVKGRFTISRDNAKNTVYLQMNSLKAEDTAVYYCNLWPPVQGYWGQGTQVTVSS
B5: VHH7: VHH, target FAP, SEQ ID NO 90 (protein)
VHH: QVQLQESGGGLVQAGGSLRLSCTASGTFSGRNAMAWYRQAPGKRRELVAGIRSDDSTNYVDSVKGRFTISRDNAKNTVYLQMNSLRPEDTAVYYCNLWPPVIGAGFGSWGQGTQVTVSSAAAYPYDVPDYGSHHHHHH
B6: TCO-VHH9: TCO conjugated VHH9 (FAP binding) (conjugate)
VHH: B1 VHH
modifications: cyclised or stapled
B7: TCO-VHH1: VHH1, functionalized with transcyclooctene (TCO) (conjugate)
VHH: B2 VHH
modifications: cyclised or stapled
B8: TCO-VHH8 (conjugate)
VHH: B3 VHH
modifications: cyclised or stapled
B9: TCO-VHH7 (conjugate)
VHH: B5 VHH
modifications: cyclised or stapled
B10: VHH7 (VHH)
VHH: QVQLQESGGGLVQAGGSLRLSCTASGTFSGRNAMAWYRQAPGKRRELVAGIRSDDSTNYVDSVKGRFTISRDNAKNTVYLQMNSLRPEDTAVYYCNLWPPVIGAGFGSWGQGTQVTVSS
notes: Anti-FAP VHH, tested before TCO conjugation; also called unconjugated VHH7
B11: VHH9 (VHH)
VHH: QVQLQESGGGLVQSGGSLRLSCVASGSISSINAMGWYRQAPGNKREWVAGITSGGSTNYADAVLGRFSIFRDNPKNTVYLQMNSLKPEDTAVYYCNTWPPSTFGSWGQGTQVTVSS
notes: Anti-FAP VHH, tested before TCO conjugation; also called unconjugated VHH9
B12: VHH1 (VHH)
VHH: B2 VHH
notes: Anti-FAP VHH, tested before TCO conjugation; also called VHH VHH1; unconjugated VHH1
B13: VHH8 (VHH)
VHH: QVQLQESGGGTVQPGGSLRLSCAASGISVSIASMAWYRQAPGKQRELVAGIISGGSTNYADSVKGRFTISRDNAKKVVLLQMNSLKPEDTAVYYCNTYPPFVGPGATATWGQGTQVTVSS
notes: Anti-FAP VHH, tested before TCO conjugation; also called unconjugated VHH8
B14: VHH6 (VHH)
VHH: B4 VHH
notes: Anti-FAP VHH, tested before TCO conjugation; also called unconjugated VHH6

Molecular target: T1, human FAP
Assay: BLI (Octet) binding kinetics pre- and post-TCO conjugation (Example 7, Table 17)
Conditions: Post conjugation (TCO)
Protocol: Five VHHs binding the target (human FAP) with different dissociation rate constants were conjugated to TCO-NHS. Using the BLI technology on Octet system the binding kinetics towards human FAP were determined for each of the five VHHs pre- and post-TCO conjugation.

koff | kon | Molecule
0.0012 s⁻¹ | 1.26e+06 M⁻¹ s⁻¹ | B1
4.99e-05 s⁻¹ | 694000 M⁻¹ s⁻¹ | B2
0.000559 s⁻¹ | 833000 M⁻¹ s⁻¹ | B3
0.000157 s⁻¹ | 1.07e+06 M⁻¹ s⁻¹ | B4
0.000123 s⁻¹ | 746000 M⁻¹ s⁻¹ | B5

Same assay, conditions: Pre conjugation (TCO)

koff | kon | Molecule
0.0018 s⁻¹ | 3.98e+06 M⁻¹ s⁻¹ | B1
8.52e-05 s⁻¹ | 1.77e+06 M⁻¹ s⁻¹ | B2
0.000679 s⁻¹ | 1.01e+06 M⁻¹ s⁻¹ | B3
0.000188 s⁻¹ | 3.41e+06 M⁻¹ s⁻¹ | B4
0.000197 s⁻¹ | 2.4e+06 M⁻¹ s⁻¹ | B5

Molecular target: T1, human FAP
Assay: BLI click reaction with Tz-R3B23 on TCO-VHHs bound to target, span (Example 7, Table 18)
Conditions: Experiment 1, click reaction with 50 nM Tz-R3B23 for 20 minutes, signal difference vs assay buffer
Protocol: Next, Octet Streptavidin (SA) Biosensors were coated with 5 μg/mL biotinylated human FAP in assay buffer (HBS+0.5% BSA+0.1% Tween20) for 5 minutes. The sensors were then dipped in wells containing a 5 nM solution of the different VHHs (both TCO conjugated and unconjugated as control) for 20 minutes (association step) and further transferred to the assay buffer (dissociation step) for 30 minutes. After the dissociation phase, that simulates the lag time, the sensors were transferred to either a well containing 50 nM of a tetrazine-coupled, non-FAP binding R3B23 (Tz-R3B23) or to a well containing assay buffer as a control. This reaction was allowed to proceed for 20 minutes (experiment 1) or 30 minutes (experiment 2) after which the sensors were washed for 30 minutes in assay buffer. In the second experiment the TCO-VHHs were measured in duplicate (referred to as assay 1 and 2 of ‘experiment 2’ in the table below). Using the epitope binning function of ‘Octet Analysis Software’ we then determined the difference in signal between the VHHs incubated with Tz-R3B23 and the VHHs incubated with assay buffer. […] The span of unconjugated VHHs was considered as noise.

Span | Molecule
0.0015 | B6
0.0040 | B1
0.0237 | B7
0.0089 | B2
0.0096 | B3
0.0224 | B8
0.0021 | B4
0.0082 | B5
0.0145 | B9

Same assay, conditions: Experiment 2, 1st assay, click reaction with 50 nM Tz-R3B23 for 30 minutes, signal difference vs assay buffer

Span | Molecule
0.0091 | B6
−0.0008 | B1
0.0334 | B7
0.0004 | B2
0.0028 | B3
0.0218 | B8
0.0017 | B4
0.0018 | B5
0.0186 | B9

Same assay, conditions: Experiment 2, 2nd assay, click reaction with 50 nM Tz-R3B23 for 30 minutes, signal difference vs assay buffer

Span | Molecule
0.0113 | B6
0.0257 | B7
0.0341 | B8
0.0230 | B9

Same assay, conditions: both experiments

span of unconjugated VHHs (noise) | Molecule
the highest | B3

Same assay, conditions: experiment 1 (20 minutes Tz-R3B23)

click reaction (span versus noise value) | Molecule
no click reaction took place | B6

Same assay, conditions: experiment 2 (30 minutes Tz-R3B23), both assays

click reaction (span versus noise value) | Molecule
just above the noise value | B6

Molecular target: T2, human fibroblast activation protein …
Assay: BLI (Octet), kinetics to human FAP, pre TCO conjugation
Conditions: not given
Protocol: Using the BLI technology on Octet system the binding kinetics towards human FAP were determined for each of the five VHHs pre- and post-TCO conjugation.

Kd | koff | kon | Molecule
0.0819 nM | 0.000197 s⁻¹ | 2.4e+06 M⁻¹ s⁻¹ | B10
0.453 nM | 0.0018 s⁻¹ | 3.98e+06 M⁻¹ s⁻¹ | B11
0.0482 nM | 8.52e-05 s⁻¹ | 1.77e+06 M⁻¹ s⁻¹ | B12
0.672 nM | 0.000679 s⁻¹ | 1.01e+06 M⁻¹ s⁻¹ | B13
0.0551 nM | 0.000188 s⁻¹ | 3.41e+06 M⁻¹ s⁻¹ | B14

Reference: patent publication US20250122304A1, “PRE-TARGETING” (Precirix N.V., priority 2022, published 2025)
